This is an account of results in patent publication US20250002586A1 (CDR LIFE, published 2025).

The target in assay [1] is T1, CD3 heterodimer (Acro Biosystems) (UniProt P07766 23-126). Put plainly: SPR (Biacore T200), CD3 heterodimer on HC30M chip; value given for the high affinity CD3 Fab.
Assay [2] concerns the target T1, CD3 heterodimer (Acro Biosystems). Briefly: SPR (Biacore T200), CD3 heterodimer on HC30M chip; value given for the low affinity CD3 Fab.
For assay [3] the target is unchanged. Put plainly: SPR (Biacore T200), CD3 heterodimer on HC30M chip; value given for the mid affinity CD3 Fab. A general note: Surface plasmon resonance follows binding to a sensor surface in real time, without labels.

In general, Kd refers to the constant that tells how readily two partners part at equilibrium. Read a low Kd as tighter binding.

T1 sequence (P07766 23-126, one chain of several): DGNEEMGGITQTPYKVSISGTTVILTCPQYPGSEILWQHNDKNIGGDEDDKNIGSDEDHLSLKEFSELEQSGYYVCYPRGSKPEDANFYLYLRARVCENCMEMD

B1: CDR-14 (bispecific antibody)
heavy: EVQLVESGGGLVQPGGSLRLSCAASGFTFSTYAMNWVRQAPGKGLEWVGRIRSKYNNYATYYADSVKGRFTISRDDSKNTLYLQMNSLRAEDTAVYYCVRHGNFGNSYVSWFAYWGQGTLVTVSSASTKGPSVFPLAPSSKSTSGGTAALGCLVKDYFPEPVTVSWNSGALTSGVHTFPAVLQSSGLYSLSSVVTVPSSSLGTQTYICNVNHKPSNTKVDKRVEPKSCGGGGSSYELTQPPSVSVSPGQTASITCTADTLSRSYASWYQQKPGQSPVLVIYRDTSRPSGIPERFSGSNSGNTATLTISGTQAMDEADYYCATSDGSGSNFQLFGGGTKLTVLGGGGGGSGGGGSGGGGSGGGGSESQVLESGGGSVQPGGSLRLSCTVSGFSLSNYAMSWVRQAPGKGLEYIGIVSSGGTTYYASWAKGRFTISKDTSKNTVYLQMNSLRAEDTASYYCAKDLYYGPTTYSAFNLWGQGTSVTVSS
light: QAVVTQEPSLTVSPGGTVTLTCRSSTGAVTTSNYANWVQQKPGQAPRGLIGGTNKRAPGVPARFSGSLLGGKAALTISGAQPEDEADYYCALWYSNHWVFGGGTKLTVLGTVAAPSVFIFPPSDEQLKSGTASVVCLLNNFYPREAKVQWKVDNALQSGNSQESVTEQDSKDSTYSLSSTLTLSKADYEKHKVYACEVTHQGLSSPVTKSFNRGECGGGGSSYELTQPPSVSVSPGQTASITCTADTLSRSYASWYQQKPGQSPVLVIYRDTSRPSGIPERFSGSNSGNTATLTISGTQAMDEADYYCATSDGSGSNFQLFGGGTKLTVLGGGGGGSGGGGSGGGGSGGGGSESQVLESGGGSVQPGGSLRLSCTVSGFSLSNYAMSWVRQAPGKGLEYIGIVSSGGTTYYASWAKGRFTISKDTSKNTVYLQMNSLRAEDTASYYCAKDLYYGPTTYSAFNLWGQGTSVTVSS
notes: no Fc
Turning to B1, the Kd in assay [1] amounted to 1.2 nM. This lies in the single-digit nanomolar range.

B2: CDR-12 (bispecific antibody)
heavy: EVQLVESGGGLVQPGGSLRLSCAASGFTFSTYAMNWVRQAPGKGLEWVGRIRSKANNYATYYADSVKGRFTISRDDSKNTLYLQMNSLRAEDTAVYYCVRHGNFGDSYVSWFAYWGQGTLVTVSSASTKGPSVFPLAPSSKSTSGGTAALGCLVKDYFPEPVTVSWNSGALTSGVHTFPAVLQSSGLYSLSSVVTVPSSSLGTQTYICNVNHKPSNTKVDKRVEPKSCGGGGSSYELTQPPSVSVSPGQTASITCTADTLSRSYASWYQQKPGQSPVLVIYRDTSRPSGIPERFSGSNSGNTATLTISGTQAMDEADYYCATSDGSGSNFQLFGGGTKLTVLGGGGGGSGGGGSGGGGSGGGGSESQVLESGGGSVQPGGSLRLSCTVSGFSLSNYAMSWVRQAPGKGLEYIGIVSSGGTTYYASWAKGRFTISKDTSKNTVYLQMNSLRAEDTASYYCAKDLYYGPTTYSAFNLWGQGTSVTVSS
light: QAVVTQEPSLTVSPGGTVTLTCGSSTGAVTTSNYANWVQQKPGKSPRGLIGGTNKRAPGVPARFSGSLLGGKAALTISGAQPEDEADYYCALWYSNHWVFGGGTKLTVLGTVAAPSVFIFPPSDEQLKSGTASVVCLLNNFYPREAKVQWKVDNALQSGNSQESVTEQDSKDSTYSLSSTLTLSKADYEKHKVYACEVTHQGLSSPVTKSFNRGECGGGGSSYELTQPPSVSVSPGQTASITCTADTLSRSYASWYQQKPGQSPVLVIYRDTSRPSGIPERFSGSNSGNTATLTISGTQAMDEADYYCATSDGSGSNFQLFGGGTKLTVLGGGGGGSGGGGSGGGGSGGGGSESQVLESGGGSVQPGGSLRLSCTVSGFSLSNYAMSWVRQAPGKGLEYIGIVSSGGTTYYASWAKGRFTISKDTSKNTVYLQMNSLRAEDTASYYCAKDLYYGPTTYSAFNLWGQGTSVTVSS
notes: no Fc
Consider B2, for which, in assay [2], the affinity, expressed as Kd, was 54 nM. This lies in the double-digit nanomolar range.

B3: CDR-13 (bispecific antibody)
heavy: EVQLVESGGGLVQPGGSLRLSCAASGFTFSTYAMNWVRQAPGKGLEWVGRIRSKYNNYATYYADSVKGRFTISRDDSKNTLYLQMNSLRAEDTAVYYCVRHGNFGDSYVSWFAYWGQGTLVTVSSASTKGPSVFPLAPSSKSTSGGTAALGCLVKDYFPEPVTVSWNSGALTSGVHTFPAVLQSSGLYSLSSVVTVPSSSLGTQTYICNVNHKPSNTKVDKRVEPKSCGGGGSSYELTQPPSVSVSPGQTASITCTADTLSRSYASWYQQKPGQSPVLVIYRDTSRPSGIPERFSGSNSGNTATLTISGTQAMDEADYYCATSDGSGSNFQLFGGGTKLTVLGGGGGGSGGGGSGGGGSGGGGSESQVLESGGGSVQPGGSLRLSCTVSGFSLSNYAMSWVRQAPGKGLEYIGIVSSGGTTYYASWAKGRFTISKDTSKNTVYLQMNSLRAEDTASYYCAKDLYYGPTTYSAFNLWGQGTSVTVSS
light: QAVVTQEPSLTVSPGGTVTLTCGSSTGAVTTSNYANWVQQKPGKSPRGLIGGTNKRAPGVPARFSGSLLGGKAALTISGAQPEDEADYYCALWYSNHWVFGGGTKLTVLGTVAAPSVFIFPPSDEQLKSGTASVVCLLNNFYPREAKVQWKVDNALQSGNSQESVTEQDSKDSTYSLSSTLTLSKADYEKHKVYACEVTHQGLSSPVTKSFNRGECGGGGSSYELTQPPSVSVSPGQTASITCTADTLSRSYASWYQQKPGQSPVLVIYRDTSRPSGIPERFSGSNSGNTATLTISGTQAMDEADYYCATSDGSGSNFQLFGGGTKLTVLGGGGGGSGGGGSGGGGSGGGGSESQVLESGGGSVQPGGSLRLSCTVSGFSLSNYAMSWVRQAPGKGLEYIGIVSSGGTTYYASWAKGRFTISKDTSKNTVYLQMNSLRAEDTASYYCAKDLYYGPTTYSAFNLWGQGTSVTVSS
notes: no Fc
Consider B3, for which, in assay [3], binding was put at a Kd of 11 nM.
